Measurements as given in patent US20050107601A1.

What was measured:
[1] = molecular target: erbB receptors on primary chick myotube cultures; assay: cell-based or functional assay
[2] = molecular target: erbB receptors on primary chick myotube cultures; assay: radioligand binding: 0.1 nM 125I-IG-EGF on chick myotubes, 2 hrs on ice, with or without 1 µM cold IG-EGF; cpm bound

| Substance | duration of p185 phosphorylation after the ligand is washed out (1 nM, 45 min treatment), chick myotubes [1] [h] | erbB receptor (p185) tyrosine phosphorylation on chick myotubes, 45 min, anti-phosphotyrosine western blot; potency relative to the EGF form [1] [fold] | specific binding as percent of total binding [2] [%] |
| --- | --- | --- | --- |
| Recombinant human NRG IG-EGF domain construct (amino acids 14-246 of the human β1 form) (from UniProt Q02297 14-246) (ligand) | 8 | 4 | 25 |
| Recombinant human NRG isolated EGF-like domain construct (amino acids 177-246 of the human β1 form) (from UniProt Q02297 177-246) (ligand) | < 1 |  |  |
